Among the data in patent publication US20160290995A1, “METHODS OF SELECTING AKT AGONISTS OR ANTAGONISTS” (OREGON HEALTH & SCIENCE UNIVERSITY, priority 2015, published 2016) are decrease in responses to sub-maximal concentrations of PDGF-BB (relative nuclear intensity of the FoxO1-clover reporter in C3H10T1/2 cells) values, retold here.

This assay deals with PDGF-α receptor, endogenous on C3H10T1/2 mouse embryonic fibroblasts (mouse) (UniProt P26618). As to the kind of experiment: cell-based or functional assay.
Chain of PDGF-α receptor, endogenous on C3H10T1/2 mouse embryonic fibroblasts (mouse) (P26618 25-1089): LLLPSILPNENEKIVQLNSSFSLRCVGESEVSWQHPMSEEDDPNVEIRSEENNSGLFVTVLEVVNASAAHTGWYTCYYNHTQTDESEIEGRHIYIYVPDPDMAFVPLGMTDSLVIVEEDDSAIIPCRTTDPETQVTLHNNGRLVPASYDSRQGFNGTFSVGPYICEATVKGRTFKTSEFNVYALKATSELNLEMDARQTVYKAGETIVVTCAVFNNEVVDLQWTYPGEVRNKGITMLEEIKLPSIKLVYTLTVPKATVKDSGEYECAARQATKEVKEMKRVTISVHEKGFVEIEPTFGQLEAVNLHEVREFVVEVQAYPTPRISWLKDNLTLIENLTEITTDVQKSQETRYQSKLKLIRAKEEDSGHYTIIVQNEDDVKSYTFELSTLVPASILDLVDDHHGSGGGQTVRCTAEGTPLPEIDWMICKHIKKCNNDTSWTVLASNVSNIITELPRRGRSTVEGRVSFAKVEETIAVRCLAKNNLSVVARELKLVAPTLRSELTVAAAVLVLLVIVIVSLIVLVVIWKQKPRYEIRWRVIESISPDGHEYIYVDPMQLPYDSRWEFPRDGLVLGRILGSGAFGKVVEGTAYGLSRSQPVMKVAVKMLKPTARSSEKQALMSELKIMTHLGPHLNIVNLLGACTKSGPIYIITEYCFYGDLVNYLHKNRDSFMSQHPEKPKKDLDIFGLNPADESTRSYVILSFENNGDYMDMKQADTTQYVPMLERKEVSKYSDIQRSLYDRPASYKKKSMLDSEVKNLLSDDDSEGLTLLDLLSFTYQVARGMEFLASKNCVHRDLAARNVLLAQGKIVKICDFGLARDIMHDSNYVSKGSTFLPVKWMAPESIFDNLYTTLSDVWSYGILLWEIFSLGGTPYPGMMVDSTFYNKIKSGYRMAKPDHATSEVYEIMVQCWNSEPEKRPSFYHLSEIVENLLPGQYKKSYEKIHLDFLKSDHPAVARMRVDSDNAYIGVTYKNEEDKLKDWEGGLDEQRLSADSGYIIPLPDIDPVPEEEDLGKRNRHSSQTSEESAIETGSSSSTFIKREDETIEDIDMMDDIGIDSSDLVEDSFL

“neutralizing antibody to the PDGF-α receptor (#AF1062, R&D Systems)” displayed a decrease in responses to sub-maximal concentrations of PDGF-BB (relative nuclear intensity of the FoxO1-clover reporter in C3H10T1/2 cells) of 10%.
